The target in this test is goat IgG (goat). Briefly: binding capacity used to set the particle load for goat serum; method not stated. The following applies: scale: mg IgG per 5 g wet weight polymer particles.

A value given as a limit tells only on which side of the number the result lay.

“PhaC-(GB1)3 polymer particles (PHB polymer particles displaying (GB1)3, from plasmid pET-14b PhaC-(GB1)3) (from UniProt P23608 1-589; P06654 228-282; P06654 228-282; P06654 228-282)”: the IgG binding capacity is over 220.

For the origin of these results see patent US20130337528A1.
